Experimental data as given in patent US20230226096A1 (Orna Therapeutics, Inc., priority 2020, published 2023).

B1: BRBV-1 (nucleic acid)
DNA: CCCCCCCTACTTAAAGATGTACGGTTTTGCTGCTTTCACAGAGTAAAGCAGATAGAGGTTCTGAACTGGCAAACTTTACCTCGAAACACGCCCGTTTTTCTGCTGTGTCTCACAGACTGTCCTGTCACACTTGTGGCGGCTTGTGACACTGTGAACATAGTGAGACCGACCAAGACAACAGTTTCAAGTGATGAACATCGAACGTCTAAACTGGATCCGTAACTGGACATGTTAGGGCAAGGACTTCCCCCCTGGTAACAGGAGCCTGGCTGGCCAAAAGCCCCGCTCATTGAGCCTAGCATGTTGTCGACCCTGGACTGTTCAGTTTAGTTAGTACATGGAATTCACTTGTCACGGTTCTTCTGAACTCGGTCTCTAGTATGACAGCCTAAGGATGCCCTCCAGGTACCCCGGGGTAACAAGTGACACCCGGGATCTGAGGAGGGGACTACTTTACGTAGTTTAAAAAACGTCTAAGCTGTTATGGTGACCAGAGGCTGGCACCTTTCACTTTTAAAATTACACTACTGACTACAATTGAAGTGATAACGGTTTTACAGGCTTTCAAACTAGTTACACAAGCACTGTTTTCCTGACACACACACTTT
modifications: Bovine rhinitis B virus
B2: GFTV (nucleic acid)
DNA: ATGGGGAAGGGTATGACGTGCCCCTTCCTTCTTCGGAGAACTCGCTCTAGTGGTCTTTCCACTTCTGGAAAAGAGTGAGTGCACGTGATCAGGACCGTCGAAGACGACAAATACCTGGTGCTCTATCTCATAGACGTTTCACAGCTGTAGCGACCCCTCAGTAGCAGCGGAAGCCCCCTCCTGGTGACAGGAGCCTCTGCGGCCAAAAGCCACGTGGATAAGATCCACTGCTGAGGGCGGTGCGACCCTAGCACCCTGTGATGCATACTAGTTGTAGCGTGCCGGACTATTGGTCTGTCATAAGACACCTGATAGAGAGACCAAGAATGTCCTGGAGGTACCCCGCGTGCGGGATCTGACCAGGAGACCATTGCCCAATGCTTTACAACGGGTCTATGGTTTAAAAACTGTCGCAGTCTCTCCAAACCAAGTGGTCTTGGTTTTCAATTACTTTGAATATTTCACT
B3: SAFV V13C (nucleic acid)
DNA: TTTTCGACGTGGTTGGAATTGCCATCATTTCCGACGAAAGTGCTATCATGCCTCCCCGATTATGTGATGTTTTCTGCCCTGCTGGGCGGAGCATTCTCGGGTTGAGAAACCTTGAATCTTTTTCTTTGGAACCTTGGTTCCCCCGGTCTAAGCCGCTTGGAATATGACAGGGTTATTTTCTTGATCTTATTTCTACTTTTGCGGGTTCTATCCGTAAAAAGGGTACGTGCTGCCCCTTCCTTCTCTGGAGAATTCACACGGCGGTCTTTCCGTCTCTCAACAAGTGTGAATGCAGCATGCCGGAAACGGTGAAGAAAACAGTTTTCTGTGGAAATTTAGAGTGCACATCGAAACAGCTGTAGCGACCTCACAGTAGCAGCGGACTCCCCTCTTGGCGACAAGAGCCTCTGCGGCCAAAAGCCCCGTGGATAAGATCCACTGCTGTGAGCGGTGCAACCCCAGCACCCTGGTTCGATGATCATTCTCTATGGAACCAGAAAATGGTTTTCTCAAGCCCTCCGGTAGAGAAGCCAAGAATGTCCTGAAGGTACCCCGCGTGCGGGATCTGATCAGGAGACCAATTGGCGGTGCTTTACACTGTCACTTTGGTTTAAAAATTGTCACAGCTTCTCCAAACCAAGTGGTCTTGGTTTTCCAATTTTGTTGAATGGCAAT
B4: SAV P-113 (nucleic acid)
DNA: GGAGATCTAAGTCAACCGACTCCGACGAAACTACCATCATGCCTCCCCGATTATGTGATGCTTTCTGCCCTGCTGGGTGGAGCATCCTCGGGTTGAGAAAACCTTCTTCCTTTTTCCTTGGACCCCGGTCCCCCGGTCTAAGCCGCTTGGAATAAGACAGGGTTATCTTCACCTCTTCCTTCTTCTACTTCATAGTGTTCTATACTATGAAAGGGTATGTGTCGCCCCTTCCTTCTTTGGAGAACACGCGCGGCGGTCTTTCCGTCTCTCGAAAAGCGCGTGTGCGACATGCAGAGAACCGTGAAGAAAGCAGTTTGCGGACTAGCTTTAGTGCCCACAAGAAAACAGCTGTAGCGACCACACAAAGGCAGCGGACCCCCCCTCCTGGCAACAGGAGCCTCTGCGGCCAAAAGCCACGTGGATAAGATCCACCTTTGTGTGCGGCACAACCCCAGTGCCCTGGTTTCTTGGTGACACTTCAGTGAAAACGCAAATGGCGATCTGAAGCGCCTCTGTAGGAAAGCCAAGAATGTCCAGGAGGTACCCCTTCCCTCGGGAAGGGATCTGACCTGGAGACACATCACATGTGCTTTACACCTGTGCTTGTGTTTAAAAATTGTCACAGCTTTCCCAAACCAAGTGGTCTTGGTTTTCACTCTTTAAACTGATTTCACT
B5: VHEV (nucleic acid)
DNA: AATTCCTTCTTCCTTTCTCCTTGGACCTCGGTCCCCCGGTCTAAGCCGCTCGGAATATGACAGGGTTATTTTCACCTCTTCTCTCTTCTACTTCATAGTGTTCTATACTATGAAAGGGTATGTGTCGCCCCTTCCTTCTTGGAGAACGTGCGTGGCGGTCTTTCCGTCTCTCGAAAAACGTGCGTGCGACATGCAGAGTAACGCAAAGAAAGCAGTTCTTGGTCTAGCTCTGGTGCCCACAAGAAAACAGCTGTAGCGACCACACAAAGGCAGCGGAAACCCCCTCCTGGTAACAGGAGCCTCTGCGGCCAAAAGCCACGTGGATAAGATCCACCTTTGTGTGCGGTGCAACCCCAGCACCCTGGTTTCTTGGTGACACCTTAGTGAACCCTCGAATGGCAATCTCAAGCGCCTCTGTAGGAAAGCCAAGAATGTCCAGGAGGTACCCCTTCCTCATGGAGGGATCTGACCTGGAGACACATCACACGTGCTATACACTTGTGCTTGTGTTTAAAAATTGTCACAGCTTTCCCAAACCAAGTGGTCTTGGTTTTCCCTTAACTTCGAAAAGTCACTATGGCCTGCAAACATGGATACCCAGACGTGTGCCCT
B6: TRV NGS910 (nucleic acid)
DNA: ATGCGACGTGGTTGGAGATTAAACCGACTCCGACGAAAGTGCTATCATGCCTCCCCGATTATGTGATGTTTTCTGCCCTGCTGGGCGGAGCATTCTCGGGTTGATACACCTTGAATCCTTCATCCTTGGACCTCAGGTCCCCCGGTCTAAGCCGCTTGGAATACGACAGGGTTATTTTCCAATCTTCTCCTTTCTACTTTCATGAGTCCTATTCATGAAAAGGGTCTGTGCTGCCCCTTCCTTCTTGGAGAATCTGCGCGGCGGTCTTTCCGTCTCTCGAAAAGCGCAGATGCAGCATGCTGGAACCGGTGAAGAAAACAGTTCTTTGTGGAAACTTAGAGCAGACATCGAAACAGCTGTAGTGACCTCACAGTAGCAGCGGAACCCCCTCCTGGTAACAGGAGCCTCTGCGGCCAAAAGCCCCGTGGATAAGATCCACTGCTGTGAGCGGTGCAACCCCAGCACCCTGGTTCGATGGTTGTTCTCTGTGGAACCAGAGAATGGTCTTTCTCAAGCCCTCCAGTAGAGAAGCCAAGAATGTCCTGAAGGTACCCCGCATGCGGGATCTGATCAGGAGACCAATCGTCAGTGCTTTACACTGGCGCTTTGGTTTAAAAACTGTCACAGCTTCTCCAAACCAAGTGGTCTTGGTTTTCACTTTTATCAAACTGTTTC
B7: EMCV2 RD1338 (nucleic acid)
DNA: AAATACTGGTCGAAACCGCTTGGGATAAGACCGGGGTTTGTTAATGTCTCAATGTTATTCTCCACCCAATTGACGTCTTTTGTCAATTGGAGGGCAGTGAAACCTTGCCCTTGCTTCTTGCAGAGGATTCCCAGTGGTCTTTCCGCTCTCGACAAGGGAATTCATGATCCACCAAAAGTTGTGAAGAGAGCAGGTCCCATGGAAGCTTTCTGACGACTGATGATGACTGTAGCGACCCTTTGCAGGCAGCGGACCCCCCCACCTGGTGACAGGTGCCTCTGCGGCCAAAAGCCACGTGTTTAACAGACACCTGCAAAGGCGGCACAACCCCAGTGCCTCATCAAAAGTCTGATGACTGTGGAAATAGTCAACCGGCTTTTCTTAAGCAAATTTGGTGTCGGGGCTGAAGGATGCCCGGAAGGTACCACACTGGTTGTGATCTGATCCGGGGCCACAGTACATGTGCTTTACACATGTAGCTGCGGTTAAAAAACGTCTAGGCCCCCCGAACCACGGGGACGTGGTTTTCCTTTGAAAACCACGATTACAAT
B8: EMCV1 AnrB-3741 (nucleic acid)
DNA: ATGTGGTCGAAGCCACTTGGAATAAGACCGGCGTGCGCTTGTCTATATGTTACTTCCACCACATTGCCGTCTTTTGGCAATGTGAGGGCCCGGAACCTGGCCCTGTCTTCTTGACGAACATTCCTAGGGGACTTTCCCCTCTCGCCAAAGGAATGTAAGGTCTGTTGAATGTCGTGAAGGAAGCAGTTCCTCTGGAAGCTTCTTGAAGACAAACAGCGTCTGTAGCGACCCTTTGCAGGCAGCGGAACCCCCCACCTGGTAACAGGTGCCTCTGCGGCCGAAAGCCACGTGTATAAGATACACCTGCAAAGGCGGCACAACCCCAGTGCCACGTTGTGCGTTGGATAGTTGTGGAAAGAGTCAAATGGCTTTCCCCAAGCGTATTCAACAAGGGGCTGAAGGATGCCCAGAAGGTACCCCACTGGTTGGGATCTGATCTGGGGCCTCGGTGCAGGTGCTTTACACCTGTTGAGTCGAGGTTAAAAAACGTCTAGGCCCCCCGAACCACGGGGACGTGGTTTTCCTAGAAAACCACTATGACAAT
B9: Cosavirus D1 (nucleic acid, listed as Cosavirus sp.)
DNA: CGTGCTTTACACGGTTTTTGAACCCCACACCGGCTGTTTGGCGCTTGCAGGACAGTAGGTATATTTTCTTTCATTTCTCTTTTCTAGCCGCGTAGGTTCTATCTACGCGGGCGGAGTGATACTCCCGCTCCTTCTTGGACAGGCGGCCTCCACGCTCTTTGTGGATCTTAAGGCTGCCAAGTCACTGGTGTTTGAAGTGAAGAATGGAGAGACACTAGGGCGTTTCATGTGGCTTTGCCAGGGATTGTAGCGATGCTGTGTGTGTGTGCGGATTTCCCCTCGTGGCGACACGAGCCTCACAGGCCAAAAGCCCTGTCCGAAAGGACCCACACAGTGGGGTTGCCCCGACCCCTCCCTTCAAAGCTTTGTGTAAACAAACTTTTGTTTAGACTTTCTTAAGCTTCTCTCACATCAGGCCCCAAAGATGTCCTGAAGGTACCCTGTGTATCTGAGGATGAGCACCACCAACTACCCGGACTTGTGGGACGTGTCCCACAGACGCATGTGGTATTCCAGCCCCCTCCTTTTGAGGAGGGGGCTTTTGCTCGCTCAGCACAGGATCTGATCAGGAGATTCATCTCTGGTGCTTTACACCAGAGCATGGATTTAAAAATTGCCCAAGGCCTGGCAAACAACCTAGGGGACTAGGTTTTCTCTATTTTAAAAGATGTCAAT

Tested on: HEK293 cells
Assay type: cell-based, human
Details: luminescence from secreted Gluc in supernatant 24 hours after transfection of HEK293 cells; circular RNA encoding Gluc with the named IRES (UTR truncated to 675 nt)

Row | Molecule | Expression
1 | B1 | 3.34E+06
2 | B2 | 1.23E+06
3 | B3 | 9.32E+07
4 | B4 | 4.37E+07
5 | B5 | 1.74E+08
6 | B6 | 3.84E+07
7 | B7 | 1.97E+06
8 | B8 | 2.55E+06
9 | B9 | 2.11E+06
